Ends that are not written are not given here.
Molecular target: T1, glutathione-S-transferase (GST) tagged human CAR ligand-binding domain (LBD) (human)
T1 construct: Component of a bought kit; It was held in the assay by a terbium-labelled anti-GST antibody (a tool only); also called CAR LBD; CAR-LBD
T1 sequence (Q14994 whole entry, looked up): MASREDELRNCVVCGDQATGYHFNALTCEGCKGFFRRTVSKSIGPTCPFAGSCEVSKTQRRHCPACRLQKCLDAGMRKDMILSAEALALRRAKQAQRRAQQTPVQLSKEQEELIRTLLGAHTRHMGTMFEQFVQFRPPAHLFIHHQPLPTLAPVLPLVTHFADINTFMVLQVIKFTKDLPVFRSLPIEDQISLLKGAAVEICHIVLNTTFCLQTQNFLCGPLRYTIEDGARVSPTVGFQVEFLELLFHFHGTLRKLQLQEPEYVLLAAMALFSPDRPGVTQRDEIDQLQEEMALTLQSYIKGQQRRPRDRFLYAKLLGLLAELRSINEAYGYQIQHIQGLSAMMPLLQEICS
Assay: FRET or BRET; LanthaScreen TR-FRET as a1, with the agonist CITCO 10 uM; three orders of adding the reagents (Figure 2A, 2B, 2C standard)
Settings: both partners purified

fold of TR-FRET ratio with CITCO 10 uM over vehicle control (order: CAR LBD, peptide and antibody, CITCO): 1.94 fold
fold of TR-FRET ratio with CITCO 10 uM over vehicle control (order: CITCO, peptide and antibody, CAR LBD): 2.26 fold
fold of TR-FRET ratio with CITCO 10 uM over vehicle control (standard order): 2.56 fold
Binder: EAEEPSLLKKLLLAPANTQ (also: fluorescein label, position not given here) [fluorescein-labeled PGC1α coactivator peptide]

Source: publication PMC4431184, “The Use of the LanthaScreen TR-FRET CAR Coactivator Assay in the Characterization of Constitutive Androstane Receptor (CAR) Inverse Agonists” (Sensors (Basel, Switzerland), 2015)
